This note sets out measurements from article doi:10.1101/212837 (bioRxiv, 2017).

The target of the test is human acid α-glucosidase (GAA), 123-200 fragment of the protease-treated enzyme (human, UniProt P10253 123-200). The experiment in a line: crystal structure.

B1: human acid α-glucosidase (GAA), 80-115 fragment of the protease-treated enzyme (domain or fragment)
chain: not shown
For B1, the binding result is recorded as “binds”.
